Data as given in the supplement of paper PMC7125110.
± gives the standard error. This sample holds only a part of the variants without activity.

B1: glmS ribozyme (parent)
chain: AUAAAAGCGCCAGAACUACAGAAAUGUAGUUGACGAGGAGGAGGUUUAUCGAAUUUUCGGCGGAUGCCUCCAAA

Columns and labels:
Settings in all cases: with glucosamine-6-phosphate
[1] = variants of: B1; experiment: self-cleavage kobs at 40 uM GlcN6P; higher = faster cleavage; RNA array
Outline: (§1)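 Ribozyme variants carrying barcodes were transcribed in situ on sequenced MiSeq chips by E. coli RNA polymerase and tracked at 37 °C with a hybridised Cy3 probe. They were exposed to 40 μM to 10 mM glucosamine-6-phosphate in HEPES/KCl/Mg(OAc)2 buffer. kobs came from exponential decay fits of normalised per-tile medians, and kcat and KM from weighted Michaelis–Menten fits.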

[2] = variants of: B1; experiment: self-cleavage kobs at 160 uM GlcN6P; higher = faster cleavage; RNA array
Outline: as §1

[3] = variants of: B1; experiment: self-cleavage kobs at 10000 uM GlcN6P; higher = faster cleavage; RNA array
Outline: as §1

[4] = variants of: B1; experiment: self-cleavage kobs at 640 uM GlcN6P; higher = faster cleavage; RNA array
Outline: as §1

[5] = variants of: B1; experiment: self-cleavage kobs at 2500 uM GlcN6P; higher = faster cleavage; RNA array
Outline: as §1

| Variant | self-cleavage kobs at 40 uM GlcN6P [1] | self-cleavage kobs at 160 uM GlcN6P [2] | self-cleavage kobs at 10000 uM GlcN6P [3] | self-cleavage kobs at 640 uM GlcN6P [4] | self-cleavage kobs at 2500 uM GlcN6P [5] |
| --- | --- | --- | --- | --- | --- |
| G38C U69C | < 1e-05 s⁻¹ | < 1e-05 s⁻¹ | < 1e-05 s⁻¹ |  |  |
| G40A A53C G62U | < 1e-05 s⁻¹ |  | < 1e-05 s⁻¹ |  |  |
| G38C U65G G66A | < 1e-05 s⁻¹ | < 1e-05 s⁻¹ |  | < 1e-05 s⁻¹ | < 1e-05 s⁻¹ |
| G38U A39U G60C C68A | < 1e-05 s⁻¹ |  |  |  | < 1e-05 s⁻¹ |
| G38U A53G | < 1e-05 s⁻¹ | < 1e-05 s⁻¹ |  | < 1e-05 s⁻¹ |  |
| A39G G51C G62C | < 1e-05 s⁻¹ |  | < 1e-05 s⁻¹ |  |  |
| G38C U49G A52C | < 1e-05 s⁻¹ |  |  |  | < 1e-05 s⁻¹ |
| G41C A42C | < 1e-05 s⁻¹ | < 1e-05 s⁻¹ |  | < 1e-05 s⁻¹ | < 1e-05 s⁻¹ |
| G38U G44U U69G C70G | < 1e-05 s⁻¹ |  |  |  |  |
| G40A U55C C61A | < 1e-05 s⁻¹ |  |  |  |  |
| G40C G62U | < 1e-05 s⁻¹ | < 1e-05 s⁻¹ | < 1e-05 s⁻¹ | < 1e-05 s⁻¹ | < 1e-05 s⁻¹ |
| G41A C68U | < 1e-05 s⁻¹ | < 1e-05 s⁻¹ | 2.09e-05 ± 8.7e-06 s⁻¹ |  | 1.85e-05 ± 7.6e-06 s⁻¹ |
| A39C A42U A48G C50A | < 1e-05 s⁻¹ |  |  |  |  |
| A39U A42G U65A | 4.73e-05 ± 1.7e-05 s⁻¹ |  | 0.00165 ± 0.00027 s⁻¹ |  |  |
| G38U U56G | < 1e-05 s⁻¹ |  | < 1e-05 s⁻¹ |  | < 1e-05 s⁻¹ |
| G40C U54G U56G | 4.04e-05 ± 1.9e-05 s⁻¹ |  | 0.000719 ± 0.00012 s⁻¹ |  | 0.000625 ± 0.00018 s⁻¹ |
| G41C A42G A53C G63A | < 1e-05 s⁻¹ |  |  | < 1e-05 s⁻¹ | < 1e-05 s⁻¹ |
| A39U G43A C50U | < 1e-05 s⁻¹ |  |  |  |  |
| G40U A42U C61A | < 1e-05 s⁻¹ |  | < 1e-05 s⁻¹ |  |  |
| G40C C67G C71U | < 1e-05 s⁻¹ |  |  |  |  |
| A39C C50U A64G | < 1e-05 s⁻¹ |  |  |  |  |
| G40A C68A | < 1e-05 s⁻¹ | < 1e-05 s⁻¹ | < 1e-05 s⁻¹ | < 1e-05 s⁻¹ | < 1e-05 s⁻¹ |
| G38U G41C C68G | < 1e-05 s⁻¹ |  | < 1e-05 s⁻¹ |  |  |
| G40U G41U U46A U47C G51U | < 1e-05 s⁻¹ |  |  |  |  |
| G40U G41C A42G A52G U56G G60U | < 1e-05 s⁻¹ |  |  | < 1e-05 s⁻¹ | < 1e-05 s⁻¹ |

| Variant | self-cleavage kobs at 40 uM GlcN6P [1] | self-cleavage kobs at 160 uM GlcN6P [2] | self-cleavage kobs at 10000 uM GlcN6P [3] | self-cleavage kobs at 640 uM GlcN6P [4] | self-cleavage kobs at 2500 uM GlcN6P [5] |
| --- | --- | --- | --- | --- | --- |
| A39G C61U | < 1e-05 s⁻¹ |  | 3.27e-05 ± 1.1e-05 s⁻¹ |  |  |
| G41A C67U U69A | < 1e-05 s⁻¹ |  |  |  |  |
| G38C G60C C70U | < 1e-05 s⁻¹ |  |  |  |  |
| G41A C58A | < 1e-05 s⁻¹ |  |  | < 1e-05 s⁻¹ |  |
| A39G G43U G44U U55G | < 1e-05 s⁻¹ |  | < 1e-05 s⁻¹ | < 1e-05 s⁻¹ | < 1e-05 s⁻¹ |
| G40C U69G | < 1e-05 s⁻¹ |  | < 1e-05 s⁻¹ | < 1e-05 s⁻¹ |  |
| G38U U55C C67G | < 1e-05 s⁻¹ |  |  | < 1e-05 s⁻¹ |  |
| G40A G63C | < 1e-05 s⁻¹ |  |  | < 1e-05 s⁻¹ |  |
| A39G A42U U57A | < 1e-05 s⁻¹ | < 1e-05 s⁻¹ |  |  |  |
| G40U A42G G51C A52G C70G | < 1e-05 s⁻¹ |  | < 1e-05 s⁻¹ |  | < 1e-05 s⁻¹ |
| G40U C61A G66A C70U | < 1e-05 s⁻¹ |  | < 1e-05 s⁻¹ |  |  |
| G38C U56G | < 1e-05 s⁻¹ | < 1e-05 s⁻¹ |  | < 1e-05 s⁻¹ | < 1e-05 s⁻¹ |
| A39G U69A | 8.49e-05 ± 1.6e-05 s⁻¹ | 9.95e-05 ± 2.2e-05 s⁻¹ | 0.000139 ± 2.2e-05 s⁻¹ | 0.000395 ± 6.6e-05 s⁻¹ | 0.000452 ± 0.00012 s⁻¹ |
| G38U G51U U54G G66A | < 1e-05 s⁻¹ |  |  |  |  |
| G40A U54G | 0.00036 ± 6.8e-05 s⁻¹ |  | 0.00643 ± 0.0015 s⁻¹ | 0.0015 ± 0.00038 s⁻¹ | 0.00184 ± 0.00065 s⁻¹ |
| G41A G63U | < 1e-05 s⁻¹ | < 1e-05 s⁻¹ | < 1e-05 s⁻¹ | < 1e-05 s⁻¹ | < 1e-05 s⁻¹ |
| A39C C50A G60A C61U U65A | < 1e-05 s⁻¹ |  | < 1e-05 s⁻¹ |  |  |
| G40U U56A G62U C67G | < 1e-05 s⁻¹ | < 1e-05 s⁻¹ |  | < 1e-05 s⁻¹ | < 1e-05 s⁻¹ |
| G40U G43U | < 1e-05 s⁻¹ | < 1e-05 s⁻¹ | < 1e-05 s⁻¹ | < 1e-05 s⁻¹ |  |
| G41A C50U G59A | < 1e-05 s⁻¹ |  | < 1e-05 s⁻¹ |  |  |
| G40A C71A | 0.00036 ± 4.6e-05 s⁻¹ | 0.000678 ± 0.00011 s⁻¹ | 0.0185 ± 0.0049 s⁻¹ | 0.00251 ± 0.00036 s⁻¹ | 0.00849 ± 0.0017 s⁻¹ |
| G38U A39G G43U G44C | < 1e-05 s⁻¹ |  | < 1e-05 s⁻¹ |  |  |
| A39G A42C U69G C70A | < 1e-05 s⁻¹ |  |  |  |  |
| G41A U56A | 4.59e-05 ± 9.3e-06 s⁻¹ | 8.06e-05 ± 1.3e-05 s⁻¹ | 0.00063 ± 8.8e-05 s⁻¹ | 0.000252 ± 2.8e-05 s⁻¹ | 0.00173 ± 0.00036 s⁻¹ |
| G38C U45C U55C | < 1e-05 s⁻¹ |  |  |  | < 1e-05 s⁻¹ |
